The supplement of paper PMC7877785
± gives the uncertainty stated by the source.

Test: self-splicing fitness, log relative to wild type (ln ratio); higher = more splicing; Tetrahymena group I intron in knt gene, E. coli kanamycin selection, DiMSum; sequences stand for … in CUCUCU…GGAGGGAAAAGUUAUCAGGCAUGCACCUGGUAGCUAGUCUUUAAACCAAUAGAUUGCAUCGGUUUAAAAGGCAAGACCGUCAAAUUGCGGGAAAGGGGUCAACAGCCGUUCAGUACCAAGUCUCAGGGGAAACUUUGAGAUGGCCUUGCAAAGGGUAUGGUAAUAAGCUGACGGACAUGGUCCUAACCACGCAGCCAAGUCCUAAGUCAACAGAUCUUCUGUUGAUAUGGAUGCAGUUCACAGACUAAAUGUCGGUCGGGGAAGAUGUAUUCUUCUCAUAAGAUAUAGUCGGACCUCUCCUUAAUGGGAGCUAGCGGAUGAAGUGAUGCAACACUGGAGCCGCUGGGAACUAAUUUGUAUGCGAAAGUAUAUUGAUUAGUUUUGGAGUACUCGUGGUCG
Summary of the method: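 A randomised library covering all eight P1ex-region intron nucleotides was built with the intron in the knt kanamycin-resistance gene on pET-22b(+) and held in E. coli BL21(DE3). Cells were grown overnight at 37°C or 30°C on LB agar, with or without 25 μg/mL kanamycin, plus 100 μg/mL carbenicillin, 50 μM IPTG and 0.2% rhamnose, and pooled colonies were amplicon-sequenced on an Illumina HiSeq 2500. DiMSum fitness is the error-weighted combination of wild-type-normalised replicate fold changes, kanamycin versus none.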

Row | Sequence | self-splicing fitness (ln) (30 °C) | self-splicing fitness (ln) (37 °C)
1 | AGUCAGCAAUAUUACGCACC | -0.932 ± 0.12 | 0.383 ± 0.13
2 | CUCUAGCAAUAUUACGGAGA | -1.93 ± 0.47 | -0.951 ± 0.27
3 | GGUUAGCAAUAUUACGGUGC | -1.07 ± 0.088 | -0.186 ± 0.12
4 | GGCCAGCAAUAUUACGGGAA | -1.98 ± 0.11 | -0.198 ± 0.11
5 | CAUCAGCAAUAUUACGGUGC | -3.55 ± 0.43 | -3.74 ± 0.46
6 | UAAAAGCAAUAUUACGCGCA | -0.512 ± 0.084 | 0.752 ± 0.13
7 | CAAUAGCAAUAUUACGCUCC | – | -0.581 ± 0.39
8 | GUACAGCAAUAUUACGUGGG | -3.76 ± 0.13 | -3.18 ± 0.14
9 | CCACAGCAAUAUUACGGAUG | -1.97 ± 0.082 | -1.19 ± 0.1
10 | UUAUAGCAAUAUUACGUUCC | – | -2.09 ± 0.48
11 | GUCUAGCAAUAUUACGGUUG | -2.54 ± 0.092 | -1.53 ± 0.1
12 | GACCAGCAAUAUUACGAAGG | -3.3 ± 0.13 | -2.19 ± 0.18
13 | UGCAAGCAAUAUUACGUGGG | -3.73 ± 0.17 | -2.93 ± 0.19
14 | GAAAAGCAAUAUUACGUAAG | -2.23 ± 0.11 | -0.733 ± 0.12
15 | CCCCAGCAAUAUUACGUUGC | -3.41 ± 0.12 | -2.78 ± 0.17
16 | GUCCAGCAAUAUUACGAACC | -1.97 ± 0.093 | -0.224 ± 0.11
17 | UUACAGCAAUAUUACGAACU | -2.26 ± 0.15 | -0.279 ± 0.13
18 | CUUAAGCAAUAUUACGAUGA | -3.04 ± 0.43 | -0.126 ± 0.22
19 | UGCGAGCAAUAUUACGAACA | -1.47 ± 0.14 | 0.122 ± 0.18
20 | AGGAAGCAAUAUUACGAGCU | -0.467 ± 0.082 | 0.0249 ± 0.1
21 | UGCAAGCAAUAUUACGGCUG | -2.12 ± 0.14 | -1.14 ± 0.18
22 | CUGGAGCAAUAUUACGCGGC | -1.27 ± 0.14 | 0.0532 ± 0.14
23 | CGCAAGCAAUAUUACGGUCA | -0.699 ± 0.067 | 0.0685 ± 0.079
24 | CAUGAGCAAUAUUACGUAGG | -1.82 ± 0.08 | -1.46 ± 0.093

Row | Sequence | self-splicing fitness (ln) (30 °C) | self-splicing fitness (ln) (37 °C)
25 | CACAAGCAAUAUUACGUUGU | -3.81 ± 0.16 | -2.39 ± 0.13
26 | CCCCAGCAAUAUUACGUUGG | -3.95 ± 0.12 | -2.83 ± 0.14
27 | AUGAAGCAAUAUUACGAUCA | -0.14 ± 0.081 | 0.405 ± 0.11
28 | UCGCAGCAAUAUUACGAGUG | -1.48 ± 0.088 | -0.719 ± 0.1
29 | ACGUAGCAAUAUUACGUAUA | -3.36 ± 0.33 | -2.1 ± 0.2
30 | ACACAGCAAUAUUACGAGUA | -2.69 ± 0.12 | -0.889 ± 0.081
31 | CAAUAGCAAUAUUACGGCGA | -3.93 ± 0.4 | -2.03 ± 0.24
32 | UCCAAGCAAUAUUACGGGCA | -0.884 ± 0.06 | 0.244 ± 0.074
33 | CAGUAGCAAUAUUACGGCUU | -1.58 ± 0.16 | -1.01 ± 0.14
34 | ACGGAGCAAUAUUACGCUUG | -1.71 ± 0.11 | -0.212 ± 0.1
35 | CUACAGCAAUAUUACGAAGA | -3.21 ± 0.45 | -2.56 ± 0.41
36 | AGCUAGCAAUAUUACGUCUC | -4.51 ± 0.39 | -2.86 ± 0.29
37 | AAGAAGCAAUAUUACGUACC | -0.392 ± 0.14 | 0.219 ± 0.19
38 | CGUUAGCAAUAUUACGUGUC | -4.28 ± 0.37 | -2.18 ± 0.18
39 | CCAAAGCAAUAUUACGUUGC | -3.4 ± 0.15 | -2.12 ± 0.17
40 | AGAAAGCAAUAUUACGCGCA | -0.218 ± 0.094 | 0.174 ± 0.11
41 | AGAGAGCAAUAUUACGUUGU | -3.79 ± 0.21 | -3.07 ± 0.2
42 | GCCAAGCAAUAUUACGAAAG | -3.63 ± 0.21 | -0.702 ± 0.2
43 | UCACAGCAAUAUUACGGAGG | -3.27 ± 0.15 | -2.29 ± 0.19
44 | CUUAAGCAAUAUUACGUAAU | -2.96 ± 0.13 | -1.56 ± 0.12
45 | GUCGAGCAAUAUUACGGCAC | -1.29 ± 0.18 | -0.213 ± 0.2
46 | CAUAAGCAAUAUUACGCAUU | -3.5 ± 0.18 | -1.35 ± 0.17
47 | GUAUAGCAAUAUUACGAGAG | -1.56 ± 0.22 | -2.9 ± 0.34
48 | GUGCAGCAAUAUUACGAACC | -1.94 ± 0.3 | 0.395 ± 0.48
